According to the DeepSol protein solubility set:

Test: soluble on expression in E. coli; label from the status in PepcDB or PDB records

| Sequence | soluble on expression in E. coli |
| --- | --- |
| GAAAAMSICPHIQQVFQNEKSKDGVLKTCNAARYILNHSVPKEKFLNTMKCGTCHEINSGATFMCLQCGFCGCWNHSHFLSHSKQIGHIFGINSNNGLLFCFKCEDYIGNIDLINDAILAKYWDDVCTKTMVPSMERRDGLSGLINMGSTCFMSSILQCLIHNPYFIRHSMSQIHSNNCKVRSPDKCFSCALDKIVHELYGALNTKQASSSSTSTNRQTGFIYLLTCAWKINQNLAGYSQQDAHEFWQFIINQIHQSYVLDLPNAKEVSRANNKQCECIVHTVFEGSLESSIVCPGCQNNSKTTIDPFLDLSLDIKDKKKLYECLDSFHKKEQLKDFNYHCGECNSTQDAIKQLGIHKLPSVLVLQLKRFEHLLNGSNRKLDDFIEFPTYLNMKNYCSTKEKDKHSENGKVPDIIYELIGIVSHKGTVNEGHYIAFCKISGGQWFKFNDSMVSSISQEEVLKEQAYLLFYTIRQVN | soluble |
| MAHHHHHHSLEYNLTTTEVAMENVSASWDEGIGEFFEKAKLEVNGGNISNEDPSAFFSNFSLHVAPVLRNINFKIEKGQLLAIAGSTGAGKTSLLMMIMGELEPSAGKIKHSGRISFSPQVSWIMPGTIKENIVFGVSYDQYRYLSVIKACQLEEDISKFPEKDNTVLGEGGITLSGGQRARISLARAVYKDADLYLLDSPFSYLDLFTEKEIFESCVCKLMANKTRILVTSKVEQLKKADKVLILHEGSCYFYGTFSELEDQRPEFSSHLIGFDHFNAERRNSIITETLRRCSEG | soluble |
| GRHLFVLEREAKLKDYLATADITRVEKGDTKFGVVTAGTCYPYLREVLPNATVLKLGASWPLPDTLLREFCASVDQVFVVEELEPIIEKEVASLGIKVEGKRLFPRAGEFSPEVVRAGFVQAGLLPAPPSYNAWVPEPVVRPPVLCAGCPHTSSFLAVRASGARVAGDIGCYTLAVLDPLRGIDTCVAMGSSIGNAIGMAKAGEAKPVVATIGDSTFLHAGLPALIDAVYNQANIAVVLLDNHITAMTGGQEH | not soluble |
| MSLANIQEIAKLAGVSSATVSRVINNRDYVSEETRKRVQTIIDKLDYVPNINAVSLKKGATKLIGMVIPSFTDSLNVFLKSFTMMAQEHGYNVTLFMTRIDPDKELEALEMLRQKQIDALVLVIRSNDWKTIEHYTKYGPIVTWQRVESEKIPSVFMNQYDGYTLALEHLYAKGYRKFVNVYGNTTGLNTQSRMLAFKDFCARYELDPHEFRQFYGQGSRQDGEKIAHWWSETEHKPDAFLTPNDYFAAGLLTEARRLGYSVPEDFAICGFDNMEVAHLLDITTIHYPVNLQAENAFTLIMNQLFGSNLPLLDLDFHLVERKTTEGHHHHHH | soluble |
| MEVNKKQLADIFGASIRTIQNWQEQGMPVLRGGGKGNEVLYDSAAVIKWYAERDAEIENEKLRREVEE | soluble |
| MAEMTEMQVHEERVMNLVESSSGTPTITPLTKTNAHRAESIRRIGTDKDAVAFHFRKKSTGMYMYIHTYTENGEEKELRASDFKNWEVTEFKYPGYLEELEEIAVNAYRWNSHDPETRAETDIMGYEKQLHEDLKKIPEAKKRITSILTKVKYPFYSTASHAAQTRW | not soluble |
| MANRIQEIALSDKNLGSKIKAVYKTERDIYVNGAPVRGRVFTASSEKQRDFEIFVPHLRNSQMLNGREEVKLIDPVARINVKRNNIGNSRSIDMVVYAKRLEVVGGNK | not soluble |
| MMFKNFPFFKGKKDTSFDHLVEEVKKGYIPEHIAIIMDGNGRWAKRRAMPRIAGHHEGMQVVKKITKFASKLNVKVLTLYAFSTENWKRPKKEVDYLMQLPEEFLGTFLPELIEENVQVRVIGQQDRLPTHTRRAMEKAMEETKENTGLILNFALNYGSRDEIVSAVQHMMKDSEEGKVRVEDVSEEMLSSYLMTSSLPDPELLIRTSGELRISNFMLWQIAYSEFWFTDVYWPDFTEEHLLNAITDFQHRGRRFGGV | not soluble |
| MDVMALKREVIEYSRSIGIDKIGFASADPFVELKERLRRQQELGYQSGFEEPDIEKRTNPSLLLPEAKSIIAIALAYPSKMKNAPRGTKTERRGVFCRASWGKDYHDVLRERLQQLEEFLLAKVPHARVRSMVDTGELADRAVAERAGIGWSGKNCSIITPEFGSYVYLGEMITNIPFPPDEPVENRCGTCTKCIDACPTGALVQGGQLNAQRCLSFLTQTKGFLADEFREKIGNRLYGCDTCQQVCPENKGKDFHLHPEFEPDPEAVKPKLIPLLQMSNREFKETFGAMAGSWRGKKPIQRNAILALAHYKDQTAVPHLLRLLKEDSRPVIRGTAAWALGKIGDPSAKSYLEAARPTEADADVIAEIEKGLKLLAEAKE | not soluble |
| MTHSQQSMVDTFRASLFDNQDITVADQQIQALPYSTMYLRLNEGQRIFVVLGYIEQEQSKWLSQDNAMLVTHNGRLLKTVKLNNNLLEVTNSGQDPLRNALAIKDGSRWTRDILWSEDNHFRSATLSSTFSFAGLETLNIAGRNVLCNVWQEEVTSTRPEKQWQNTFWVDSATGQVRQSRQMLGAGVIPVEMTFLKPAPLEHHHHHH | soluble |
| MLLDVQRGQLSFTKYSIITVIWLSLSRILNRGQLSLECFEFWQPTSQLLVLDVCLLDAFALEHHHHHH | not soluble |
| MGSDKIHHHHHHMLKNIPIPSPLSPVEGILIKRKTLERYFSIERLEQQAHQRAKRILREAEEEAKTLRMYAYQEGYEQGMIDALQQVAAYLTDNQTMAWKWMEKIQIYARELFSAAVDHPETLLTVLDEWLRDFDKPEGQLFLTLPVNAKKDHQKLMVLLMENWPGTFNLKYHQEQRFIMSCGDQIAEFSPEQFVETAVGVIKHHLDELPQDCRTISDNAINALIDEWKTKTQAEVIR | not soluble |
| MSLKMIISYGMPKSASTFAWLVIKKICLNSRLDDVVDLSTAAKGNDSVEDYIDGSVKVNAAQITREVGERCCVIKTHSSAVHFRTLVGGSAFFLPFAQHRDPRDVALSLMDHARRSRELGIADYADCLSIEGCLPVIDSSIENFIEWVDQYSAIPISYDYLCFNGLACLSFIASALDCDVDCAAILKGFERKESIAQFNKGIRHRWVDEMPQAQARMLFRRYEEYYDRFGAEGHHHHHH | not soluble |
| MGSDKIHHHHHHLIKNILIMAANGQISRLIENQILNDDQFANVHLTLFLRHQSRLAQLAKNPRVTLIEGSLDRLDDVKKAMVDQDLVFIGVVDHSKGSQQTQNVIAGMKAGHVQRVIYTNVLGIYDEVPGTFGKWNKATIGNGLPSALKSDQLLEQSGLDYTTLRLPWLNDRDVKYQLTHKDETYVGVSGSRKSVADVVLKIIADPDYLKNDSVGIADPDTAGSDRLVY | not soluble |
| MLIKRLAFAIMTLVIMTSAGCGFKLQRSYQIPEQLNQLSLSSSDEYSELTRLVRERLRLNNVKIVDAANDVPVLRLITDSLERSTLSLYPTGNVAEYELIYFVEFAVALPGKEAQPFKIEIRRDYLDDPRTALAKSREMELLVKEMRIQAADRILQSMASTEVNLEHHHHHH | soluble |
| MSIYEFDSEEEYATFVNWIEAKKPSITDCSIETFNDDLEDFDRLDEDGLYIEYTRVLLDNLNVTKSMDLMIPTHSSFEFSQDFHLDAVRLRSCFGRNNLFNFHCKEIEVSDSEISSENVNQYLRAWAAGCYNELEKLEVLFYGNENKFDWKPLLQGLNRKRTIYEHNIIDPEVTDETTEVKIETEHPGEFDYYYYKWAKIHRKVDSEGNFYMGMIVN | not soluble |
| GMDNVAEYRKLIKQVLTEYDNLSRQSPETNYETCLVFDENHDNYLWLAVDWQGSKRIKYTYVHIRIKNEKIYIEEDYTEEGIATELMRLGVTNNDIVLAFHPPDVRKFTDFATA | soluble |
| MSHVSTLRRALLGALLLAPAAALANTPIPIDVWRTPTCGCCEDWLQHLRSNGFEVRAHMVEDTAPVRSQAGMPARYGSCHTARVQGYTVEGHVPAADIRRLLRDKPRAVGLTAPGMPIGSPGMDGPAYGGRRDAYDVLLVQPDGSARVFQAYR | not soluble |
| MIVPKGNENIRPGYAMEPKYITIHETANTSKGANALNHAKYLDNQARGNTDRSASWHFTVDDKEIYQHLPLNEVGWHAGNKTGNYESIGIEIAVNSDGNYTKAVENAKKLAAYLMNELNISLDHVQKHQFWSGKNCPAFMIQRGQWDAFLKGTNAYYNEHHKDVIPPPEVPHEKDDITGGWYEQDIRQLAARKIMFGDGNGSYWPNRLVTRAEFANLMSRALNLPAGNAKFTDLNEAHPSLVDGINRAASAGIINGRGNNKFDPNATITRDEAVIMIDRALEYNWIYRKEVKLPFTDQHLAYDKKALQNVYAYGIVKGNERNEFVPKGTATRAESAAFLNRMLKVIEA | not soluble |
| MAHHHHHHMLILKNVEHTILLKIVKRSFSRNVNNNKFVIKPSSLRIRSDKNNFNDIINKYFPNRILKKRKQQDDYSKMNDKNEEKDKKYYLSSKIERRLKMEKVNDQSNISFYNVIPRDKNKNNYLLDSYNNINNDDSTNISDNTNISDNTNISDNTNISDNTNISDNINISDNINISDDINICDKLNICDNTNINLFGYDMTSHQVRVEEKENNLTRNNKKNVLEITKEEHDIQKYKNKLHKKIWILLKRKSNEKEFEHYYNMLEKYPLKDEVSYSILLHGKLLISKRKKDNAENYYDIIKECFKILNEMKVKKIHPTLVRFNEKLVLSYYELIKLNVHPSYKQWMKILRTVWFVSALVKARRQKFILRKMKKIKNKNSVSLDNFNGTFNIHNLESLYVENRDPLIANNVQQGI | soluble |
| MHENQQPQTEAFELSAAEREAIEHEMHHYEDPRAASIEALKIVQKQRGWVPDGAIHAIADVLGIPASDVEGVATFYSQIFRQPVGRHVIRYCDSVVCHINGYQGIQAALEKKLNIKPGQTTFDGRFTLLPTCCLGNCDKGPNMMIDEDTHAHLTPEAIPELLERYK | not soluble |
| MSLAVVASAVAGCGQVRVGQVEPAPGSPTRAQVEDMLGRVRVVAERGRPGGYDRDCGRGGGCVFGPAWTDDHGGAEGHNGCDTRNDVLAAQLSDVRYREGTRDCVVVAGTLRDPYTGRLLEFRKADARDVQIDHVYPLAAAWDLGAAGWSPEQRVRFANDTVTNLMATAGAVNQAKGDATPAEWMPPARANHCFYAGKYLTVAVRYDLPVTAADNAVLHAIARTCPEGHHHHHH | soluble |
| MGHHHHHHSHMIDKATGILLYGLASRLRDTRRLSFLVSYIASKKIHTEPQLSAALEYVRSHPLDPIDTVDFERECGVGVIVTPEQIEEAVEAAINRHRPQLLVERYHFNMGLLMGEARAVLKWADGKMIKNEVDMQVLHLLGPKLEADLE | soluble |
